Source: the RNAGym collection of RNA variant scans (doi:10.7554/elife.80360)

B1: CPEB3 Ribozyme (parent)
chain: GGGGGCCACAGCAGAAGCGUUCACGUCGCGGCCCCUGUCAGAUUCUGGUGAAUCUGCGAAUUCUGCUGU

Variants of: B1
Experiment: self-cleavage, relative activity (ratio to wild type); higher = more cleavage; co-transcriptional

| Variant | self-cleavage |
| --- | --- |
| G19U U46G | 0.596 |
| G19U U49C | 0.594 |
| G19U U49G | 0.459 |
| G19U U55C | 0.191 |
| G19U U61A | 0.217 |
| G19U U61C | 0.194 |
| G19U U61G | 0.262 |
| G19U U62A | 0.244 |
| G19U U62C | 0.256 |
| G19U U62G | 0.251 |
| G19U U64A | 0.233 |
| G19U U64C | 0.249 |
| G19U U64G | 0.192 |
| G19U U67A | 0.479 |
| G19U U67C | 0.461 |
| G19U U67G | 0.546 |
| G19U U69A | 0.739 |
| G19U U69C | 0.925 |
| U20A | 0.157 |
| U20A A23C | 0.149 |
| U20A A40G | 0.11 |
| U20A A42C | 0.0988 |
| U20A A42G | 0.0639 |
| U20A A51C | 0.151 |

| Variant | self-cleavage |
| --- | --- |
| U20A A51G | 0.186 |
| U20A A51U | 0.153 |
| U20A A52C | 0.0922 |
| U20A A52G | 0.117 |
| U20A A52U | 0.143 |
| U20A A59C | 0.0876 |
| U20A A59G | 0.125 |
| U20A A60C | 0.114 |
| U20A A60G | 0.146 |
| U20A C22A | 0.152 |
| U20A C22G | 0.119 |
| U20A C22U | 0.176 |
| U20A C24A | 0.203 |
| U20A C24U | 0.0896 |
| U20A C27G | 0.152 |
| U20A C27U | 0.149 |
| U20A C29A | 0.194 |
| U20A C29G | 0.157 |
| U20A C29U | 0.155 |
| U20A C32A | 0.153 |
| U20A C32G | 0.171 |
| U20A C32U | 0.148 |
| U20A C34A | 0.196 |
| U20A C34G | 0.196 |

| Variant | self-cleavage |
| --- | --- |
| U20A C34U | 0.0989 |
| U20A C35A | 0.115 |
| U20A C35G | 0.183 |
| U20A C39A | 0.169 |
| U20A C39U | 0.125 |
| U20A C45U | 0.144 |
| U20A C54G | 0.194 |
| U20A C54U | 0.124 |
| U20A C57A | 0.195 |
| U20A C57G | 0.092 |
| U20A C57U | 0.152 |
| U20A C63A | 0.129 |
| U20A C63G | 0.13 |
| U20A C66A | 0.154 |
| U20A C66G | 0.133 |
| U20A C66U | 0.205 |
| U20A G25A | 0.198 |
| U20A G25C | 0.165 |
| U20A G25U | 0.135 |
| U20A G28A | 0.12 |
| U20A G28C | 0.14 |
| U20A G28U | 0.182 |
| U20A G30A | 0.192 |
| U20A G30C | 0.141 |

| Variant | self-cleavage |
| --- | --- |
| U20A G30U | 0.109 |
| U20A G31A | 0.135 |
| U20A G31C | 0.0954 |
| U20A G31U | 0.17 |
| U20A G37A | 0.13 |
| U20A G37C | 0.156 |
| U20A G41C | 0.133 |
| U20A G47A | 0.176 |
| U20A G48A | 0.124 |
| U20A G50C | 0.188 |
| U20A G50U | 0.141 |
| U20A G56A | 0.184 |
| U20A G56C | 0.113 |
| U20A G56U | 0.217 |
| U20A G58A | 0.208 |
| U20A G58U | 0.152 |
| U20A G65C | 0.113 |
| U20A G65U | 0.19 |
| U20A G68A | 0.196 |
| U20A G68C | 0.253 |
| U20A G68U | 0.142 |
| U20A U21C | 0.0963 |
| U20A U26C | 0.106 |
| U20A U26G | 0.182 |

| Variant | self-cleavage |
| --- | --- |
| U20A U36C | 0.149 |
| U20A U36G | 0.201 |
| U20A U38G | 0.23 |
| U20A U43C | 0.154 |
| U20A U43G | 0.123 |
| U20A U44A | 0.15 |
| U20A U44C | 0.139 |
| U20A U44G | 0.204 |
| U20A U46A | 0.216 |
| U20A U46C | 0.0817 |
| U20A U46G | 0.128 |
| U20A U49A | 0.125 |
| U20A U53A | 0.0892 |
| U20A U53C | 0.154 |
| U20A U53G | 0.136 |
| U20A U55A | 0.237 |
| U20A U55C | 0.118 |
| U20A U55G | 0.112 |
| U20A U61A | 0.123 |
| U20A U61C | 0.137 |
| U20A U61G | 0.137 |
| U20A U62A | 0.0929 |
| U20A U64A | 0.326 |
| U20A U64C | 0.122 |

| Variant | self-cleavage |
| --- | --- |
| U20A U64G | 0.11 |
| U20A U67C | 0.127 |
| U20A U67G | 0.271 |
| U20A U69C | 0.225 |
| U20A U69G | 0.282 |
| U20C | 0.222 |
| U20C A23C | 0.243 |
| U20C A23U | 0.257 |
| U20C A40G | 0.212 |
| U20C A42G | 0.161 |
| U20C A51G | 0.272 |
| U20C A52C | 0.181 |
| U20C A52U | 0.109 |
| U20C A59C | 0.124 |
| U20C A59G | 0.277 |
| U20C A59U | 0.15 |
| U20C A60C | 0.142 |
| U20C A60G | 0.166 |
| U20C A60U | 0.208 |
| U20C C22G | 0.214 |
| U20C C22U | 0.229 |
| U20C C27G | 0.136 |
| U20C C27U | 0.114 |
| U20C C29A | 0.227 |

| Variant | self-cleavage |
| --- | --- |
| U20C C29U | 0.128 |
| U20C C32A | 0.192 |
| U20C C33A | 0.286 |
| U20C C33G | 0.113 |
| U20C C33U | 0.219 |
| U20C C34A | 0.176 |
| U20C C34G | 0.139 |
| U20C C34U | 0.13 |
| U20C C35A | 0.169 |
| U20C C35G | 0.129 |
| U20C C35U | 0.145 |
| U20C C39A | 0.224 |
| U20C C39G | 0.201 |
| U20C C39U | 0.176 |
| U20C C45A | 0.219 |
| U20C C45G | 0.217 |
| U20C C45U | 0.201 |
| U20C C54G | 0.206 |
| U20C C54U | 0.182 |
| U20C C57G | 0.261 |
| U20C C63A | 0.138 |
| U20C C63G | 0.162 |
| U20C C63U | 0.229 |
